T1: cynomolgus monkey (Macaca fascicularis) ROR2, full length, on CHO cells (cynomolgus monkey (Macaca fascicularis), UniProt Q01974 34-943 (human entry))
T1 construct: also called ROR2mf; CHO-mfROR2
T1 chain: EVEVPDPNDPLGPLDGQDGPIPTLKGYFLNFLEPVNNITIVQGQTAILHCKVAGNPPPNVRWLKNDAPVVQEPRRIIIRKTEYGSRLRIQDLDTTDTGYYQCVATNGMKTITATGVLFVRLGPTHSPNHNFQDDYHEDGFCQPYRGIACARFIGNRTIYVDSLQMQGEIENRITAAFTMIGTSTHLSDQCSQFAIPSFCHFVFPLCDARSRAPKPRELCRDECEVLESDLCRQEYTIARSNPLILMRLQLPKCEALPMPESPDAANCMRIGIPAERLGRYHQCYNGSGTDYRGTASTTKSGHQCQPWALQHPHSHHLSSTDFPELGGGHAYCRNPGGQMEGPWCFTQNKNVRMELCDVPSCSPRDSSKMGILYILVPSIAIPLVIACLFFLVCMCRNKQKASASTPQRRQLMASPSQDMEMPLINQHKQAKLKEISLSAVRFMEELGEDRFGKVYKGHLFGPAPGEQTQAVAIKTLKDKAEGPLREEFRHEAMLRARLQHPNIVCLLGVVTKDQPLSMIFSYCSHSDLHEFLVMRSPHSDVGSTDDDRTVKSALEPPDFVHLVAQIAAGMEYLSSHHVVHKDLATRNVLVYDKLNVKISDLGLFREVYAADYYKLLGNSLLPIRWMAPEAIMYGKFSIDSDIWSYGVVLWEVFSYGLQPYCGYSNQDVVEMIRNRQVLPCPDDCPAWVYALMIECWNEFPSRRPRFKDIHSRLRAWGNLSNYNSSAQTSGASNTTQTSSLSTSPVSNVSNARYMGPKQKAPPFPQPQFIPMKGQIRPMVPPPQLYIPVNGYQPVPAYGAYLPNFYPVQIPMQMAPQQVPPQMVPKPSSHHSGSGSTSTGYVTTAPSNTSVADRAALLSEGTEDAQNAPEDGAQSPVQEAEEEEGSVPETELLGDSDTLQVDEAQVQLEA

B1: chIgG1-ROR2-A-FEAR (antibody, V domains shown)
VH: QSVEESGGRLVTPGTPLTLTCTVSGFSLSSYSMSWVRQAPGKGLEWIGVIYVNSKTWYANWAKGRFTISKTSTTVDLKITSPTTEDTATYFCARGDAGYTTNSWLWGPGTLVTVSS
VL: AFELTQTPASVSEPVGGTVTIKCQASESIDNYCSWYQQKPGQPPKLLIYQAFKLASGVPSRFRGSGSGTQFTLTISDLESDDAATYYCQSYSGISTTAFGGGTEVVVKR
notes: Full-length IgG1 with L234F, L235E, D265A, K409R; also called chIgG1-ROR2-A (with the Fc mutations FEAR)
B2: bsIgG1-huCD3-FEAL×chROR2-A-FEAR (bispecific antibody)
heavy 1: not shown
light 1: not shown
heavy 2: QSVEESGGRLVTPGTPLTLTCTVSGFSLSSYSMSWVRQAPGKGLEWIGVIYVNSKTWYANWAKGRFTISKTSTTVDLKITSPTTEDTATYFCARGDAGYTTNSWLWGPGTLVTVSSASTKGPSVFPLAPSSKSTSGGTAALGCLVKDYFPEPVTVSWNSGALTSGVHTFPAVLQSSGLYSLSSVVTVPSSSLGTQTYICNVNHKPSNTKVDKRVEPKSCDKTHTCPPCPAPEFEGGPSVFLFPPKPKDTLMISRTPEVTCVVVAVSHEDPEVKFNWYVDGVEVHNAKTKPREEQYNSTYRVVSVLTVLHQDWLNGKEYKCKVSNKALPAPIEKTISKAKGQPREPQVYTLPPSREEMTKNQVSLTCLVKGFYPSDIAVEWESNGQPENNYKTTPPVLDSDGSFFLYSRLTVDKSRWQQGNVFSCSVMHEALHNHYTQKSLSLSPGK
light 2: AFELTQTPASVSEPVGGTVTIKCQASESIDNYCSWYQQKPGQPPKLLIYQAFKLASGVPSRFRGSGSGTQFTLTISDLESDDAATYYCQSYSGISTTAFGGGTEVVVKRTVAAPSVFIFPPSDEQLKSGTASVVCLLNNFYPREAKVQWKVDNALQSGNSQESVTEQDSKDSTYSLSSTLTLSKADYEKHKVYACEVTHQGLSSPVTKSFNRGEC
B3: bsIgG1-huCD3-FEAL×ROR2-A-HC4LC3-FEAR (bispecific antibody)
heavy 1: not shown
light 1: not shown
heavy 2: EVQLLESGGGLVQPGGSLRLSCTVSGFSLSSYSMSWVRQAPGKGLEWIGVIYVNSKTWYANWAKGRFTISKDNSKNTVYLQMNSLRAEDTATYYCARGDAGYTTNSWLWGQGTLVTVSSASTKGPSVFPLAPSSKSTSGGTAALGCLVKDYFPEPVTVSWNSGALTSGVHTFPAVLQSSGLYSLSSVVTVPSSSLGTQTYICNVNHKPSNTKVDKRVEPKSCDKTHTCPPCPAPEFEGGPSVFLFPPKPKDTLMISRTPEVTCVVVAVSHEDPEVKFNWYVDGVEVHNAKTKPREEQYNSTYRVVSVLTVLHQDWLNGKEYKCKVSNKALPAPIEKTISKAKGQPREPQVYTLPPSREEMTKNQVSLTCLVKGFYPSDIAVEWESNGQPENNYKTTPPVLDSDGSFFLYSRLTVDKSRWQQGNVFSCSVMHEALHNHYTQKSLSLSPGK
light 2: AFELTQSPSSLSASVGDRVTITCQASESIDNYLSWYQQKPGKAPKLLIYQAFKLASGVPSRFRGSGSGTDFTLTISSLQPEDFATYYCQSYSGISTTAFGGGTKVEIKRTVAAPSVFIFPPSDEQLKSGTASVVCLLNNFYPREAKVQWKVDNALQSGNSQESVTEQDSKDSTYSLSSTLTLSKADYEKHKVYACEVTHQGLSSPVTKSFNRGEC
B4: bsIgG1-huCD3-H101G-FEAL×ROR2-A-HC4LC3-FEAR (bispecific antibody)
heavy 1: not shown
light 1: not shown
heavy 2: B3 heavy 2
light 2: B3 light 2

Tests used:
[1] = target: T1, cynomolgus monkey (Macaca fascicularis) …; assay: flow cytometry on CHO cells expressing cynomolgus monkey ROR2
Experimental: Next, binding of bispecific CD3×ROR2 antibodies and monospecific ROR2 antibodies to CHO cells expressing human or cynomolgus monkey ROR2 was determined, using 5×10⁴ transfected cells/well and an antibody concentration range from 0.01-10 μg/mL.

[2] = target: T2, cynomolgus monkey ROR2 in which threonine at position 322 is replaced by methionine (ROR2mf-T322M) (cynomolgus monkey (Macaca fascicularis), UniProt Q01974 34-943 (human entry)); assay: flow cytometry on CHO cells expressing ROR2mf-T322M
T2 construct: also called RORmf-T322M

[3] = target: T3, his-tagged ROR2 extracellular domain (ROR2-ECD, G&P Biosciences, cat. no. FCL0192) (human, UniProt Q01974 34-403); assay: BLI (Octet), antibody on anti-human IgG Fc sensor, ROR2-ECD 1.56-100 nM as analyte
T3 construct: Bought protein; also called human ROR2-ECD; recombinant human ROR2-ECD; not shown: his tag

[4] = target: T4, human (Homo sapiens) ROR2, full length, on cells (human, UniProt Q01974 34-943); assay: cell-based or functional assay
[5] = target: T4, human (Homo sapiens) ROR2, full length, …; assay: flow cytometry on CHO cells expressing human ROR2
Experimental: Cells (1×10⁵ cells/well) were incubated in polystyrene 96-well round-bottom plates (Greiner bio-one, cat. no. 650180) with serial dilutions of antibodies (ranging from 0.01 to 10 μg/mL in 3- or 4-fold dilution steps) in 100 μL PBS/0.1% BSA/0.02% azide (FACS buffer) at 4° C. for 30-60 min. Experiments were performed in technical duplicate. After washing twice in FACS buffer, cells were incubated in 50 μL secondary antibody (R-Phycoerythrin [PE]-conjugated goat-anti-human IgG F(ab′)₂; diluted 1:200 in FACS buffer; Jackson ImmunoResearch Laboratories, Inc., West Grove, PA, cat. no. 109-116-098) at 4° C. for 30 min. Cells were washed twice in FACS buffer, re-suspended in 30 μL FACS buffer containing Topro-3 (1:10,000 dilution) and analyzed on an iQue Screener (Intellicyt Corporation, USA). Binding curves were analyzed using non-linear regression (sigmoidal dose-response with variable slope) using GraphPad Prism V7.02 software (GraphPad Software, San Diego, CA, USA).

T3 sequence (Q01974 34-403): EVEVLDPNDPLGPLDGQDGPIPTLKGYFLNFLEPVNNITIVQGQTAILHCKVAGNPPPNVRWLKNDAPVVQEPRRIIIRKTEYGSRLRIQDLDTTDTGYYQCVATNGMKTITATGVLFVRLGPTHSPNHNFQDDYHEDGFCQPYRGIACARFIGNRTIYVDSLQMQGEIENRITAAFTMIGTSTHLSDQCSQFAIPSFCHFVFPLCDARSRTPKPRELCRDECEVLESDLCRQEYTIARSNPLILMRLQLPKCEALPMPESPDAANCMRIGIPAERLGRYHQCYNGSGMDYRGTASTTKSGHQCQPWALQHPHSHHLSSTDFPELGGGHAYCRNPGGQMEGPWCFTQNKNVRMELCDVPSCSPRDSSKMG
T4 sequence (Q01974 34-943 limits assumed): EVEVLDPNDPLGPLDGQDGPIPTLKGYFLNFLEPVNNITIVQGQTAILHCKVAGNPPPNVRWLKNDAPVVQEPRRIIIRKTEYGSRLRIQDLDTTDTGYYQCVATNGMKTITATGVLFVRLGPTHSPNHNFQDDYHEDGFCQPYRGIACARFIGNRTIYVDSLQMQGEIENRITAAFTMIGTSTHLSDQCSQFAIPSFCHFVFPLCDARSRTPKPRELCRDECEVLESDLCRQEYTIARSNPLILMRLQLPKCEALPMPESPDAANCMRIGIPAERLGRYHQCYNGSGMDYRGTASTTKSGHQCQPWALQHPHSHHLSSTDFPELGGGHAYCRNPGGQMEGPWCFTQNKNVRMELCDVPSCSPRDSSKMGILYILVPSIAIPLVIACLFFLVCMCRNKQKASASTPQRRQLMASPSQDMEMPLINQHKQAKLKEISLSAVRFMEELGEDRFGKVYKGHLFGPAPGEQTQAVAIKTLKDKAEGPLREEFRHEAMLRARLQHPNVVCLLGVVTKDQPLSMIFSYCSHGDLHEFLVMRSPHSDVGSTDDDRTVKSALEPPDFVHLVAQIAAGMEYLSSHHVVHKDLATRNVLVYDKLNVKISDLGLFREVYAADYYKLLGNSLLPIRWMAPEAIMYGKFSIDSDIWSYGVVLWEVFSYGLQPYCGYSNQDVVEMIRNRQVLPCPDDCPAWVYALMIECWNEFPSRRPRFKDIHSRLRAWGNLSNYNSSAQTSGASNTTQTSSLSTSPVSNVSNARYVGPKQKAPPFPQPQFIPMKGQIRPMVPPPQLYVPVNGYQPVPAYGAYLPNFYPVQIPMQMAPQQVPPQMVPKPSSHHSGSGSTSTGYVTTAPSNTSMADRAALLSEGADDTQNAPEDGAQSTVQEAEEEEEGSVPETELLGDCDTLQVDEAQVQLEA

Row | Binder | binding result [1] | binding result [2] | Kd [3] [nM] | koff [3] [s⁻¹] | kon [3] [M⁻¹ s⁻¹] | IC50 of T cell mediated cytotoxicity, 786-O cells, human T cells, E:T 8:1 [4] [ng/mL] | IC50 of T cell mediated cytotoxicity, Hela cells, human T cells, E:T 8:1 [4] [ng/mL] | IC50 of T cell mediated cytotoxicity, LCLC-103H cells, human T cells, E:T 8:1 [4] [ng/mL] | IC50 of T cell mediated cytotoxicity, NCI-H23 cells, human T cells, E:T 8:1 [4] [ng/mL] | IC50 of T cell mediated cytotoxicity, NCI-H1650 cells, human T cells, E:T 8:1 [4] [ng/mL] | IC50 of T cell mediated cytotoxicity, ZR-75-1 cells, human T cells, E:T 8:1 [4] [ng/mL] | binding result [5]
1 | B1 | binds | binds | 1.1 | 0.00079 | 720000 |  |  |  |  |  |  | 
2 | B2 | binds | binds |  |  |  | 3 | 2 | 11 | 13 | 6 | 3 | 
3 | B3 | binds | binds |  |  |  |  |  |  |  |  |  | binds
4 | B4 |  | binds |  |  |  |  |  |  |  |  |  | binds

Reference: patent US20230365714A1 (published 2023)
